Tested on: Equine melanoma tumors
Assay: RNA-Seq transcriptomic analysis (DEGs, EdgeR) of treated equine melanoma tumors excised 6 h and 12 h after injection
Type: in vivo, Equus caballus
Settings: for SELE expression, average / SELE expression, median: RNA-Seq
Description: Equine melanoma tumors were used in experiments with the administration of the compound of the invention, for transcriptomic analysis at different points in time. This translational experiment was carried out at Sao Joaquim Farm (SP) and the samples were transported to the Instituto Butantan, in the city of Sao Paulo. The experiment was designed with non-treated control samples at 0 h (PBS) and the treated tumors were excised 6 h and 12 h after the injection of 1 mg of polypeptide per kg of tumor. For each time point, two tumors were removed from three different animals, producing six tumors per time point. All 18 cDNA libraries were prepared following Illumina's TruSeq® RNA Preparation Kit Kits v2 protocol, and then sequenced using HiSeq 1500 Illumina technology, generating 2×100 bp chain-specific paired readings. The raw sequencing readings had the contaminants removed with bowtie2 2.2.5, and then trimmomatic was used for quality control of the sequences, to cut and remove readings with regions of low complexity and enriched with homopolymers, poly-A/T/N tails, low quality adapter strings and bases, with the fastq-mcf 1.04.662 software. The readings were filtered if more than 90% of the readings correspond to regions of homopolymer or of low complexity. Subsequently, cut if the average quality score was less than 25 in a window size equal to 15. After cutting, all readings less than 40 bp were discarded.
Total RNA was isolated from cells grown with Trizol (Ambion, Life Technologies) and purified with a Mini RNAspin kit (GE Healthcare) according to the manufacturer's instructions, with prolonged treatment with DNase I for 1 h.
RNA quality was assessed with an Agilent 2100 Bioanalyzer RNA Pico assay. RNA was quantified using the Rib-Green Quant-iT and RNA reagent kit (Invitrogen, Life Technologies). The messenger RNA (mRNA) was isolated and used to prepare the complementary DNA (cDNA) libraries following the instructions of the TruSeq RNA Sample Prep Kit V2 (Illumina, San Diego, Calif.). Briefly, the mRNA was isolated with oligo-dT and purified. Then, the mRNA was fragmented by heating to 94° C. (4 min) in fragmentation buffer. The double-stranded cDNA was synthesized, repaired at the end and tail A. The sequencing adapters were then attached to the cDNA fragments, according to the manufacturer's protocol. The cDNA fragments were enriched after 15 rounds of PCR amplification. The quality control of the library was assessed by size distribution of the cDNA libraries measured using 2100 Bioanalyzer with DNA1000 assay (Agilent Technologies) and a StepOnePlus real-time PCR system from ABI were used to quantify the sample library before sequencing. The cDNA library was sequenced on the Illumina HiSeq 1500 System, in a final flow cell paired with Rapid in a 200 pair strategy of 2-101 bp pairing strategy.
The in-silico analysis of RNA-Seq comprises several quality steps and transcriptomic quantification algorithms that are understood in the present invention as “pipeline”. (FIG. 19). The quality check was performed using FastQC3. Hisat214 was used to align readings against the horse's reference genome (Equus caballus) (annotation version 89). To map and quantify transcriptions, the feature Counts was used, resulting in a table of genetic IDs versus samples with raw reading counts. Then, differentially expressed genes (DEGs) were calculated using the EdgeR package. Genes with less than one count per million (CPM) were filtered out. The DEGs were calculated by crossing the sample values of a) 6 h after treatment (6 h)×control (0 h); b) 12 h after treatment (12 h)×control; and also, c) 12 h×6 h. DEGs are defined as an absolute value of log 2 fold change between two groups (LFC)>1 and false discovery rate (FDR)<0.05. […]

[1] = RNA-seq median expression, 12 h

B1: Amblyomin-X: recombinant Kunitz type protein identified in a cDNA library of Amblyomma sculptum tick salivary glands (protein)
chain: MRQLAVLALVIFTGMCVESQSANSKAVCNLPKLAGDETCSNKTEIRWYYNGTACEAFIFKGCGGNDNNFDRVDDCQRLCEEQTHFHFESPKLICFKVQDYWILNDIMKKNLTGISLKSEEEDADSGEID
modifications: Amblyomin-X
notes: recombinant Kunitz type protein identified in a cDNA library of Amblyomma sculptum tick salivary glands
6 h after treatment
  SELE expression, average: 7.15 CPM
  SELE expression, median: 4.56 CPM
12 h after treatment
  SELE expression, average: 4.85 CPM
  SELE expression, median: 5.63 CPM
RNA-seq median expression, 6 h
  median2, gene ACTN1: 153.3001 CPM
  median2, gene BCL3: 46.57 CPM
  median2, gene BIRC3: 47.3192 CPM
  median2, gene CAD: 52.82 CPM
  median2, gene CCL2: 171.527 CPM
  median2, gene CDO1: 22.45 CPM
  median2, gene CTSL: 34.0817 CPM
  median2, gene CXCL6: 6.189 CPM
  median2, gene DDX58: 22.55 CPM
  median2, gene F12: 4.891 CPM
  median2, gene FOSL1: 14.18 CPM
  median2, gene FSCN1: 97.19 CPM
  median2, gene HMOX1: 99.11 CPM
  median2, gene HSPA6: 15.93 CPM
  median2, gene IFI35: 48.07 CPM
  median2, gene IFIH1: 13.29 CPM
  median2, gene IFIT1: 28.13 CPM
  median2, gene IL1B: 20.23 CPM
  median2, gene IL1RN: 120.3935 CPM
  median2, gene IL13RA1: 29.3 CPM
  median2, gene IRF9: 72.39 CPM
  median2, gene ITGA1: 7.06 CPM
  median2, gene MYH1: 0 CPM
  median2, gene MYH3: 1.418 CPM
  median2, gene MYL2: 0 CPM
  median2, gene MYLPF: 1.314 CPM
  median2, gene NTNG1: 1.059 CPM
  median2, gene OAS2: 34.26 CPM
  median2, gene PARP9: 16.34 CPM
  median2, gene PER1: 32.08 CPM
  median2, gene PIK3R6: 5.162 CPM
  median2, gene RUNX1: 8.949 CPM
  median2, gene SAA1: 7.68 CPM
  median2, gene SELP: 22.34 CPM
  median2, gene SLPI: 230.2294 CPM
  median2, gene SOCS3: 12.21 CPM
  median2, gene STAT1: 76.48 CPM
  median2, gene TAT: 1.235 CPM
  median2, gene TEAD4: 21.64 CPM
  median2, gene THBS1: 43.5 CPM
  median2, gene TLR2: 59.58 CPM
  median2, gene TREM1: 31.36 CPM
[1]
  median3, gene ACTN1: 165.3412 CPM
  median3, gene BCL3: 39.97 CPM
  median3, gene BIRC3: 47.38 CPM
  median3, gene CAD: 50.34 CPM
  median3, gene CCL2: 418.8519 CPM
  median3, gene CDO1: 12.71 CPM
  median3, gene CTSL: 33.8889 CPM
  median3, gene CXCL6: 1.108 CPM
  median3, gene DDX58: 31.9 CPM
  median3, gene F12: 8.671 CPM
  median3, gene FOSL1: 11.46 CPM
  median3, gene FSCN1: 152.3466 CPM
  median3, gene HMOX1: 105.6427 CPM
  median3, gene HSPA6: 53.79 CPM
  median3, gene IFI35: 66.19 CPM
  median3, gene IFIH1: 27.95 CPM
  median3, gene IFIT1: 34.11 CPM
  median3, gene IL1B: 10.07 CPM
  median3, gene IL1RN: 118.3058 CPM
  median3, gene IL13RA1: 23.98 CPM
  median3, gene IRF9: 85.24 CPM
  median3, gene ITGA1: 6.155 CPM
  median3, gene MYH1: 0 CPM
  median3, gene MYH3: 1.817 CPM
  median3, gene MYL2: 0 CPM
  median3, gene MYLPF: 1.629 CPM
  median3, gene NTNG1: 0.744 CPM
  median3, gene OAS2: 82.84 CPM
  median3, gene PARP9: 18.56 CPM
  median3, gene PER1: 39.99 CPM
  median3, gene PIK3R6: 4.433 CPM
  median3, gene RUNX1: 9.266 CPM
  median3, gene SAA1: 11.7 CPM
  median3, gene SELP: 20.58 CPM
  median3, gene SLPI: 620.7695 CPM
  median3, gene SOCS3: 11.57 CPM
  median3, gene STAT1: 83.64 CPM
  median3, gene TAT: 9.52 CPM
  median3, gene TEAD4: 39.12 CPM
  median3, gene THBS1: 31.32 CPM
  median3, gene TLR2: 93.64 CPM
  median3, gene TREM1: 24.25 CPM
RNA-seq, 6 h after treatment
  logFC6, gene ACTN1: 1.003
  logFC6, gene BCL3: 1.936
  logFC6, gene BIRC3: 1.275
  logFC6, gene CAD: 1.227
  logFC6, gene CCL2: 2.79
  logFC6, gene CDO1: −1.785
  logFC6, gene CTSL: 1.376
  logFC6, gene CXCL6: 5.945
  logFC6, gene DDX58: 1.434
  logFC6, gene F12: 2.559
  logFC6, gene FOSL1: 4.578
  logFC6, gene FSCN1: 1.457
  logFC6, gene HMOX1: 1.443
  logFC6, gene HSPA6: 5.376
  logFC6, gene IFI35: 1.513

Reference: US12329806B2, “Compound for modulating rlr, tlr, oas and/or oncostatin m pathways, use thereof for preparing a medicine, composition, method for modulating said pathways and method of treatment” (Instituto Butantan, priority 2018, dated 2025)
